Source: the DeepSol protein solubility set

Assay: soluble on expression in E. coli; label from the status in PepcDB or PDB records

MPQNAQEYYEKVKKFTKKKDGAIRAIEDTKKAMEKKAATKSAKAGRKLQASRKKHWYDRFRWFVSSDGFLVVGGRDADTNEEIFKKYMEKRDIVFHTQTPGAPLTVVKTGGKEVPDSTLQEVSQFAVSYSSLWKAGQFSGDCYWIKSEQVTKTPESGEYLKKGAFVIRGERNYFKDVPLGIAVGLELKGETRIIGGPASAVRKHGDYILEIIPGKFNQNDISKKIYRIYADELNDPRFVKQIASPDQIAMMIPAGESDLRNQKPEKKGQGFGPEGEGYETPEMEAGFEDLKGEIDEESGENAGEEFADEEFAEEIGEGSEVKVKAEAREGNEEIIEIRGVKKE
soluble on expression in E. coli: not soluble

GAVGLTIRSNITYSKNEIVDRDEENNYYWYKMQKGHRVNQARGLISLGLFKDYDDIRNSPVQDFDGYKVMPGDIKYKDVNGDGKIDGNDQVAIGATTKPNLIYGFGIAANWKGLDVNLHFQGAGKSTYFIDGSTVHMFKLGDGWGNVLSEMANSNRWISADISGDPATENPNAEYPRLSYGPNSNNYQQSTYWLRNGSYLRLKTVEVGYTLPTQLVNKVHFNTVRIFFVGTNLLTWSAFKLWDPEMGSTDGKRYPLSKNLSLGISVNL
soluble on expression in E. coli: not soluble

MEWILFDKDGTLIEFDRSWEKIGVRFVQSLLETFPVHNKEAALRQLGVIKESIDPKSVMGSGSLQQIIQAFNDVTGQDTTDWSKSTSQKLVDERIPEINWVEGVKEALIDLKAKGYQLGIVTSDTKKGVEQFLAHTNAISLFDLIISTEADAYEKPNPKVLSPLFEQYNVDPQKVAIVGDTANDMKTASNANLGMAIGVLTGIATKEELHEADIILNSAADILEALN
soluble on expression in E. coli: not soluble

MNFIVIGAGNIGSGIAQNLLEDGHEVEIADKSRESLNRIRGRNPKIRTREFDVMDRSAYRMLNDYDASVSALPGSIGMQFLKNVAKMGKIVVDVSYMEEDPYDLNGIAQSAGTIIVPDMGFAPGLTNAIVGYFSADLDQIRNVKIYVGGIPEKPVPPLDYTITWSVEGLIDEYTRPVRIVRNGTEDHVPALSGIERIGVGNYADMEAFYTDGLRSLIRNIKCTGEMFEKTIRYPGHAEKMAAIRDLGYFDRIKVDGCNLTMFEISEQIFMEKLFRPDIQDVVLMKVEVSGTKLGREVTRTAEMQTGYDSSRKRTAMDMATSLPASITAEFLSSNGKITSGIVFPEILGKTQNYFEYLVNNMKKKGINVNISVK
soluble on expression in E. coli: not soluble

MGSDKIHHHHHHMALSLRACILLLKEHHLLKSAAIQNTEDVDMTGIAYDSRKVSGPTLFFCKGDKFRPIYLSMAKDNGARTYVAEKPYVEGNGLNALIVRNITKAMAILSAAFFDYPQDDLFVIAYTGTKGKTTASYFTEAILNEARPRHIALFSTIDTVVGPEPDQRFKSNLTTPESLDLFRDMREAVENGMTHLVMEVSSQAYLRNRVFGLTYDVGFFLNITPDHIGPNEHPTFANYLHNKLQLLVNARKVVINAETEHFDQVYAAATTTTYPESIYLFASAGFRPKRDDIDIDFRFDSQEADVAESRFTLVPVTEKAAALNIGGHYSLALIGDFNESNATAAIIGAGLAGVDASAAVPGIAKVKIPGRMEHTKVAGHGAVYVDYAHNYASMKALLSFLKHAYKDPRLLVVVGSPGDKGVSRRPGFAKVLTEFATEAFLTTDDPGYEDPANIIEEIDSKIDHSKVKVHKVLDRKKAIAEAISDSGPNDIVVVAGKGADPYQKVRGVNTPWPTDMAVVKQVAKSLQEG
soluble on expression in E. coli: not soluble

MLMLRSPFSDSNVLDHFLDEITGSVQFPYWRNADHNSFNFSDNIGEIVNDESKFSVQLDVSHFKPEDLKIELDGRELKIEGIQEKKSEHGYSKRSFSKMILLPEDVDLTSVKSAISNEGKLQIEAPKKTNSSRSIPINFVAKH
soluble on expression in E. coli: not soluble

MQILEPQQFATWNEPIEMLYACHSKVKRFCRQLSILPDYLEKHGYTQAVLNDVEQILSYFNRAAPLHHDDEELDFFPQLVKVAPQTQTSIDELEKQHEYLHENWNALSVQLEELISEQRQDIDKHLIERFIQGYDRHIALEEPLFEMGRECLSADILTEMGKHMSARRQVKE
soluble on expression in E. coli: not soluble

GSHMRTIIALETHDVRFPTSRELDGSDAMNPDPDYSAAYVVLRTDGAEDLAGYGLVFTIGRGNDVQTAAVAALAEHVVGLSVDKVIADLGAFARRLTNDSQLRWLGPEKGVMHMAIGAVINAAWDLAARAANKPLWRFIAELTPEQLVDTIDFRYLSDALTRDEALAILRDAQPQRAARTATLIEQGYPAYTTSPGWLGYSDEKLVRLAKEAVADGFRTIKLKVGANVQDDIRRCRLARAAIGPDIAMAVDANQRWDVGPAIDWMRQLAEFDIAWIEEPTSPDDVLGHAAIRQGITPVPVSTGEHTQNRVVFKQLLQAGAVDLIQIDAARVGGVNENLAILLLAAKFGVRVFPHAGGVGLCELVQHLAMADFVAITGKMEDRAIEFVDHLHQHFLDPVRIQHGRYLAPEVPGFSAEMHPASIAEFSYPDGRFWVEDLAASKAKA
soluble on expression in E. coli: soluble
